Several values for one entry are separate records, joined by “and”; a condition that tells them apart may be missing. Identical values can stand only once. Like-named read-outs stand apart in the source and are kept apart here.
What was measured:
[1] = molecular target: T1, SARS-CoV-2 Spike protein-RBD-mFc (Acrobiosystem; SPD-C5259) (SARS-CoV-2; mouse, UniProt P0DTC2 319-541)
[2] = molecular target: T1, SARS-CoV-2 Spike protein-RBD-mFc …; experiment: SPR (Biacore T200), […], kinetic fit 1:1 binding, […]
[3] = molecular target: T1, SARS-CoV-2 Spike protein-RBD-mFc …; experiment: as above; remark: listed apart in the source
[4] = molecular target: epitope sequence SEQ ID No 27 ([…]) (SARS-CoV-2); experiment: RepliTope peptide microarray, Cy5 fluorescence
Description: (§1) The peptide library consisted of 15-meric peptides representing overlapping peptide scans. […] Incubation took place for 1 hour at 30° C. Biotin-labeled secondary antibody (mouse-anti-camelid IgG) was added at 2 μg/mL and incubated for 1 hour. Detection was visualized using Cy5-labeled streptavidin at 0.1 μg/mL incubated for 1 hour. After washing and drying, the slides were scanned with a high-resolution laser scanner at 635 nm to obtain fluorescence intensity profiles. Resulting images were quantified to yield a mean pixel value for each peptide.

[5] = molecular target: epitope sequence SEQ ID No 29 ([…]) (SARS-CoV-2); experiment: RepliTope peptide microarray, Cy5 fluorescence
Description: as §1

[6] = molecular target: epitope sequence SEQ ID No 28 ([…]) (SARS-CoV-2); experiment: RepliTope peptide microarray, Cy5 fluorescence
Description: as §1

[7] = molecular target: epitope sequence SEQ ID No 30 ([…]) (SARS-CoV-2); experiment: RepliTope peptide microarray, Cy5 fluorescence
Description: as §1

[8] = molecular target: epitope sequence SEQ ID No 39 ([…]) (SARS-CoV-2); experiment: RepliTope peptide microarray, Cy5 fluorescence
Description: as §1

[9] = molecular target: epitope sequence SEQ ID No 36 ([…]) (SARS-CoV-2); experiment: RepliTope peptide microarray, Cy5 fluorescence
Description: as §1

[10] = molecular target: epitope sequence SEQ ID No 38 ([…]) (SARS-CoV-2); experiment: RepliTope peptide microarray, Cy5 fluorescence
Description: as §1

[11] = molecular target: epitope sequence SEQ ID No 25 ([…]) (SARS-CoV-2); experiment: RepliTope peptide microarray, Cy5 fluorescence
Description: as §1

[12] = molecular target: epitope sequence SEQ ID No 21 ([…]) (SARS-CoV-2); experiment: RepliTope peptide microarray, Cy5 fluorescence
Description: as §1

B1: hcAb B10 (clone B10), camelid full length IgG2 heavy chain only antibody (antibody, V domains shown)
VH: DVQLQESGGGLVQPGGSLRLSCAASGDINTIGTMNWFRQAPGKGREFVALITSGGTTNYADSVKGRFTVSRDNAKNTVYLQMNSLKPEDTAVYHCYGADHYSDYWGQGTQVTVSS
notes: also called mAb B10
- Kd [1]: 0.39 nM
- Kd [2]: 0.372 nM and 0.385 nM
- koff [2]: 0.000454 s⁻¹ and 0.000459 s⁻¹
- kon [2]: 1.22e+06 M⁻¹ s⁻¹ and 1.19e+06 M⁻¹ s⁻¹
- Kd [3]: 0.397 nM
- koff [3]: 0.000463 s⁻¹
- kon [3]: 1.17e+06 M⁻¹ s⁻¹
- average signal intensity [4]: 14000 mean pixel value
- average signal intensity [5]: 353 mean pixel value
- average signal intensity [6]: 14000 mean pixel value
- average signal intensity [7]: 644 mean pixel value
- average signal intensity [8]: 15200 mean pixel value
- average signal intensity [9]: 800 mean pixel value
- average signal intensity [10]: 18100 mean pixel value
- average signal intensity [11]: 750 mean pixel value
- average signal intensity [12]: 48600 mean pixel value
